Patent US20150232507A1

Key:
Test in all cases: cell-based or functional assay
[1] = target: C-terminal domain of G1 cloned directly to Trx whose first amino acid is Ile (E. coli)
[2] = target: C-terminal domain of G1 cloned directly to Trx whose first amino acid is Thr (E. coli)
[3] = target: C-terminal domain of G1 cloned directly to Trx whose first amino acid is Gln (E. coli)
[4] = target: C-terminal domain of G1 cloned directly to Trx whose first amino acid is Met (E. coli)
[5] = target: C-terminal domain of G1 cloned directly to Trx whose first amino acid is His (E. coli)
[6] = target: C-terminal domain of G1 cloned directly to Trx whose first amino acid is Asn (E. coli)
[7] = target: C-terminal domain of G1 cloned directly to Trx whose first amino acid is Tyr (E. coli)
[8] = target: C-terminal domain of G1 cloned directly to Trx whose first amino acid is Cys (E. coli)
[9] = target: C-terminal domain of G1 cloned directly to Trx whose first amino acid is Gly (E. coli)
[10] = target: C-terminal domain of G1 cloned directly to Trx whose first amino acid is Asp (E. coli)
[11] = target: C-terminal domain of G1 cloned directly to Trx whose first amino acid is Phe (E. coli)
[12] = target: C-terminal domain of G1 cloned directly to Trx whose first amino acid is Leu (E. coli)
[13] = target: C-terminal domain of G1 cloned directly to Trx whose first amino acid is Ser (E. coli)
[14] = target: C-terminal domain of G1 cloned directly to Trx whose first amino acid is Pro (E. coli)
[15] = target: C-terminal domain of G1 cloned directly to Trx whose first amino acid is Lys (E. coli)
[16] = target: C-terminal domain of G1 cloned directly to Trx whose first amino acid is Val (E. coli)
[17] = target: C-terminal domain of G1 cloned directly to Trx whose first amino acid is Ala (E. coli)
[18] = target: C-terminal domain of G1 cloned directly to Trx whose first amino acid is Arg (E. coli)
[19] = target: C-terminal domain of G1 cloned directly to Trx whose first amino acid is Glu (E. coli)
[20] = target: C-terminal domain of G1 cloned directly to Trx whose first amino acid is Trp (E. coli)

B1: G1^N(C1A): StreptagII-gpD-linker[N-extein]-Gp41.1^N(C1A)-GGHHHHHH fusion protein (protein)
chain: MASWSHPQFEKASKETFTHYQPQGNSDPAHTATAPGGLSAKAPAMTPLMLDTSSRKLVAWDGTTDGAAVGILAVAADQTSTTLTFYKSGTFRYEDVLWPEAASDETKKRTAFAGTAISIVGSTRSGYALDLKTQVQTPQGMKEISNIQVGDLVLSNTGYNEVLNVFPKSKKKSYKITLEDGKEIICSEEHLFPTQTGEMNISGGLKEGMCLYVKEGGHHHHHH
C-terminal Cleavage Yield (%) [1]: 88.4%
C-terminal Cleavage k [1]: 0.000173 s⁻¹
C-terminal Cleavage t(½) [1]: 66.7 min
C-terminal Cleavage Yield (%) [2]: 87.5%
C-terminal Cleavage k [2]: 0.000573 s⁻¹
C-terminal Cleavage t(½) [2]: 20.1 min
C-terminal Cleavage Yield (%) [3]: 88.8%
C-terminal Cleavage k [3]: 0.00047 s⁻¹
C-terminal Cleavage t(½) [3]: 24.6 min
C-terminal Cleavage Yield (%) [4]: 85.6%
C-terminal Cleavage k [4]: 0.00087 s⁻¹
C-terminal Cleavage t(½) [4]: 13.3 min
C-terminal Cleavage Yield (%) [5]: 71.1%
C-terminal Cleavage k [5]: 0.000447 s⁻¹
C-terminal Cleavage t(½) [5]: 25.9 min
C-terminal Cleavage Yield (%) [6]: 71.2%
C-terminal Cleavage k [6]: 0.000287 s⁻¹
C-terminal Cleavage t(½) [6]: 40.3 min
C-terminal Cleavage Yield (%) [7]: 91.3%
C-terminal Cleavage k [7]: 0.00033 s⁻¹
C-terminal Cleavage t(½) [7]: 35 min
C-terminal Cleavage Yield (%) [8]: 83.6%
C-terminal Cleavage k [8]: 0.000683 s⁻¹
C-terminal Cleavage t(½) [8]: 16.9 min
C-terminal Cleavage Yield (%) [9]: 75.2%
C-terminal Cleavage k [9]: 0.000137 s⁻¹
C-terminal Cleavage t(½) [9]: 84.5 min
C-terminal Cleavage Yield (%) [10]: 68.6%
C-terminal Cleavage k [10]: 0.000247 s⁻¹
C-terminal Cleavage t(½) [10]: 46.8 min
C-terminal Cleavage Yield (%) [11]: 72.6%
C-terminal Cleavage k [11]: 0.000307 s⁻¹
C-terminal Cleavage t(½) [11]: 37.7 min
C-terminal Cleavage Yield (%) [12]: 69.3%
C-terminal Cleavage k [12]: 0.000273 s⁻¹
C-terminal Cleavage t(½) [12]: 42.3 min
C-terminal Cleavage Yield (%) [13]: 89.4%
C-terminal Cleavage k [13]: 0.000483 s⁻¹
C-terminal Cleavage t(½) [13]: 23.9 min
C-terminal Cleavage Yield (%) [14]: 57.8%
C-terminal Cleavage k [14]: 6e-05 s⁻¹
C-terminal Cleavage t(½) [14]: 193 min
C-terminal Cleavage Yield (%) [15]: 86.7%
C-terminal Cleavage k [15]: 0.00051 s⁻¹
C-terminal Cleavage t(½) [15]: 22.6 min
C-terminal Cleavage Yield (%) [16]: 86.7%
C-terminal Cleavage k [16]: 0.000273 s⁻¹
C-terminal Cleavage t(½) [16]: 42.3 min
C-terminal Cleavage Yield (%) [17]: 75.8%
C-terminal Cleavage k [17]: 0.000357 s⁻¹
C-terminal Cleavage t(½) [17]: 32.4 min
C-terminal Cleavage Yield (%) [18]: 87.3%
C-terminal Cleavage k [18]: 0.00051 s⁻¹
C-terminal Cleavage t(½) [18]: 22.6 min
C-terminal Cleavage Yield (%) [19]: 86.2%
C-terminal Cleavage k [19]: 0.000127 s⁻¹
C-terminal Cleavage t(½) [19]: 91.2 min
C-terminal Cleavage Yield (%) [20]: 94.1%
C-terminal Cleavage k [20]: 0.00028 s⁻¹
C-terminal Cleavage t(½) [20]: 41.3 min
